Source: patent US20130310313A1 (CHINA MEDICAL UNIVERSITY, published 2013)

B1: IRBP-ZE (SEQ ID NO:187) (peptide)
peptide: IVIRTPIIT
notes: Homologue of IRBP-60-68 with several residues replaced; synthetic
B2: IRBP-OS (SEQ ID NO:183) (peptide)
peptide: TVAKTPTIG
notes: as for B1
B3: IRBP-LU (SEQ ID NO:188) (peptide)
peptide: VVTSVPHIT
notes: as for B1
B4: IRBP-MT (SEQ ID NO:179) (peptide)
peptide: IVYQVPTIG
notes: as for B1
B5: IRBP-CM (SEQ ID NO:184) (peptide)
peptide: LVVSPPRIG
notes: as for B1
B6: IRBP-VV-1 (SEQ ID NO:185) (peptide)
peptide: IVSMVPKIG
notes: as for B1
B7: IRBP-MC (SEQ ID NO:21) (peptide)
peptide: IVARPPAIG
B8: IRBP-SN (SEQ ID NO:181) (peptide)
peptide: IVTRVPVIG
notes: as for B1
B9: IRBP-AT (SEQ ID NO:182) (peptide)
peptide: IVVRNPTAG
notes: as for B1
B10: IRBP-VV-2 (SEQ ID NO:180) (peptide)
peptide: IVISVPTIG
notes: as for B1
B11: IRBP-CP (SEQ ID NO:186) (peptide)
peptide: KVIRVPRIG
notes: as for B1
B12: IRBP-1-68 polypeptide (SEQ ID NO:1) (peptide)
chain: SRCQGKSSWPQLVGSTGAAAKAVIERENPRVRAVIIKVGSGATKDFRCDRVRVWVTERGIVARPPTIG
B13: IRBP-34-52 (SEQ ID NO:4) (peptide)
peptide: VIIKVGSGATKDFRCDRVR
notes: synthetic
B14: IRBP-50-68 (SEQ ID NO:6) (peptide)
peptide: RVRVWVTERGIVARPPTIG
B15: IRBP-60-68 (SEQ ID NO:7) (peptide)
peptide: IVARPPTIG
notes: synthetic
B16: IRBP-45-68 (SEQ ID NO:5) (peptide)
peptide: DFRCDRVRVWVTERGIVARPPTIG
notes: synthetic
B17: IRBP-1-19 (SEQ ID NO:2) (peptide)
peptide: SRCQGKSSWPGLVGSTGAA
notes: synthetic

biological target: T1, insulin receptor on human lymphocyte cells (IM-9) (human, UniProt P06213 28-1382); assay: whole cell receptor binding assay on IM-9 cells with 125I-insulin; EC50 of promoting 125I-insulin binding
T1 construct: whole, on cells; Endogenous receptor of IM-9 cells; also called IR; insulin receptors
Experimental: (§1) After incubation, the cells were chilled, centrifuged at 2000 rpm for 10 min at 4° C., and the pellets were washed twice with an ice-cold wash buffer (10 mmol/L Tris and 150 mmol/L NaCl, pH 7.6). The pellet was counted by a gamma counter. The assays were performed at least three times for each polypeptide. […] The lower value of EC₅₀ represents a stronger effect on promoting the binding.

Which EC50 does the source give for B1 here?
Its EC50 is 4.94 nM.

How did the EC50 turn out when B2 was run?
Its EC50 is 9.93 nM.

B3 was tested. Which EC50 did it give?
Its EC50 is 9.7 nM.

For B4, which EC50 is on record?
Its EC50 is 0.77 nM.

How did the EC50 turn out when B5 was run?
The EC50 was 0.92 nM.

For B6, which EC50 is on record?
The EC50 was 0.96 nM.

For B7, which EC50 is on record?
The EC50 was 0.86 nM.

How did the EC50 turn out when B8 was run?
Its EC50 is 9.79 nM.

How did the EC50 turn out when B9 was run?
Its EC50 is 9.98 nM.

B10 was tested. Which EC50 did it give?
The EC50 was 4.98 nM.

With B11 as the binder, how does the EC50 read?
Its EC50 is 0.84 nM.

biological target: T1, insulin receptor on human lymphocyte …; assay: whole cell receptor binding assay on IM-9 cells with 125I-insulin; EC50 defined as the concentration promoting 50% of the 125I-insulin to bind
Experimental: as §1

B12 was tested. Which EC50 did it give?
Its EC50 is 4.15 nM.

biological target: T1, insulin receptor on human lymphocyte …; assay: whole cell receptor binding assay on IM-9 cells with 125I-insulin; EC50 of promoting 125I-insulin binding; remark: another data set of the same source

Which EC50 does the source give for B13 here?
Its EC50 is > 25 nM.

B14 was tested. Which EC50 did it give?
The EC50 was 0.73 nM.

Which EC50 does the source give for B15 here?
The EC50 was 0.77 nM.

For B16, which EC50 is on record?
The EC50 was > 25 nM.

B17 was tested. Which EC50 did it give?
The EC50 was 15.3 nM.
